Measurements reported in article PMC12646664.

Biological target: Gα-interacting vesicle-associated protein (GIV), endogenous (human (endogenous in THP1)) (UniProt Q3V6T2)
Chain of UniProt Q3V6T2 (Q3V6T2 whole entry): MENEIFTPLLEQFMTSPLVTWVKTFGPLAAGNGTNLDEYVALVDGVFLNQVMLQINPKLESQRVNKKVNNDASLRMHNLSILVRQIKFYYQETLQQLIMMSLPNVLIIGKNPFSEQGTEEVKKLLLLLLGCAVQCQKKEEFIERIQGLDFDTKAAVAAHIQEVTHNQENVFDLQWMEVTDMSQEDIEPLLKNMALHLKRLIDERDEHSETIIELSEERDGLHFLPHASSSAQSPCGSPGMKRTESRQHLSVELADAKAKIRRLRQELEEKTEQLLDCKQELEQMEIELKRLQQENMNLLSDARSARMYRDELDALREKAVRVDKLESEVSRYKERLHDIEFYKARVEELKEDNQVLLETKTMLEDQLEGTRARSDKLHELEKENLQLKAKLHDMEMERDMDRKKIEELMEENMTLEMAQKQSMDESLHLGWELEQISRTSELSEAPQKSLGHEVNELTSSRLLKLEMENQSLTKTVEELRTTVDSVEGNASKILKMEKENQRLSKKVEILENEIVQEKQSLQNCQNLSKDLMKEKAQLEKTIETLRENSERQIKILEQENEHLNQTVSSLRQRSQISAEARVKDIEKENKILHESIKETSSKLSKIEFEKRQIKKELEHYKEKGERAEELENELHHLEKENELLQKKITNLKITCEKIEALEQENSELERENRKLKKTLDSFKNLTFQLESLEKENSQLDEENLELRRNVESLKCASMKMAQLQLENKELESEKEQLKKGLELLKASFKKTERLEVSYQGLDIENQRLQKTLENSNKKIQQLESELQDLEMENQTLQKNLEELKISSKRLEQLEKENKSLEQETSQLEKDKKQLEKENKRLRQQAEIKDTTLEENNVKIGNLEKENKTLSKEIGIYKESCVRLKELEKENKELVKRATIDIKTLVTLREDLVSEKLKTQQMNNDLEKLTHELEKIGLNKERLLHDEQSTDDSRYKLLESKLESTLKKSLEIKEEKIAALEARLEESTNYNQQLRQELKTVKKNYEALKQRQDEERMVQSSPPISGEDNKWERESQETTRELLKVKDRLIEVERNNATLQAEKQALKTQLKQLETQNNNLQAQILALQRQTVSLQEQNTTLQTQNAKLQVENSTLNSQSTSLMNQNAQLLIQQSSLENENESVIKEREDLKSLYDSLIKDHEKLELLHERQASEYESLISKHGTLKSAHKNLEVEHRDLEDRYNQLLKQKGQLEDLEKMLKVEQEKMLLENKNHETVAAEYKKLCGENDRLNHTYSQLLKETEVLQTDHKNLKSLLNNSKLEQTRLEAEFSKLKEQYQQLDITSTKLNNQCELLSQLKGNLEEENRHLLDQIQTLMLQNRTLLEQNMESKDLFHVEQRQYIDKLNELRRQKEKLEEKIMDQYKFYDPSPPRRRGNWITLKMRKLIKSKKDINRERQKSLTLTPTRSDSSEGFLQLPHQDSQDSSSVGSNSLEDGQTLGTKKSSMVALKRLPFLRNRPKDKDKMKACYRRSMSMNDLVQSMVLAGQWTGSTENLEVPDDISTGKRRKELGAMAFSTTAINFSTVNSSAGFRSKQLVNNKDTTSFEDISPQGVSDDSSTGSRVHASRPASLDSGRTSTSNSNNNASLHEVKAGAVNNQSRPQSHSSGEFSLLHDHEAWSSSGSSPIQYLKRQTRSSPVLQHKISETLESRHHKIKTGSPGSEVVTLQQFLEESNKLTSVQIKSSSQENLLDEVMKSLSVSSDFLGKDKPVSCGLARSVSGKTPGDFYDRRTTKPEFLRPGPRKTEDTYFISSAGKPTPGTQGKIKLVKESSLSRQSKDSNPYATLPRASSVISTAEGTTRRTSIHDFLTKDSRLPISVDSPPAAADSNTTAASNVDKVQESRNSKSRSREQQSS

HA-NOD2 (wild type) (from UniProt Q9HC29 1-1040) (natural protein)
suppression by MDP pretreatment (10 μg/mL) of LPS (100 ng/mL)-induced NF-κB activation, luciferase reporter assay in HeLa cells with NOD2-WT: 65 % protection

HA-NOD2 1007fs (from UniProt Q9HC29 1-1040) (natural protein)
suppression by MDP pretreatment (10 μg/mL) of LPS (100 ng/mL)-induced NF-κB activation, luciferase reporter assay in HeLa cells with NOD2-1007fs: 20 % protection

HA-NOD2 R702W (from UniProt Q9HC29 1-1040) (natural protein)
suppression by MDP pretreatment (10 μg/mL) of LPS (100 ng/mL)-induced NF-κB activation, luciferase reporter assay in HeLa cells with NOD2 R702W: 45 % protection

HA-NOD2 G908R (from UniProt Q9HC29 1-1040) (natural protein)
suppression by MDP pretreatment (10 μg/mL) of LPS (100 ng/mL)-induced NF-κB activation, luciferase reporter assay in HeLa cells with NOD2 G908R: 7 % protection
